Values quoted from earlier work as cited in paper PMC3585250.

Target: integrin αvβ3 (Homo sapiens) (UniProt P06756)
Sequence of UniProt P06756 (P06756 31-1048, chain 1 of 2): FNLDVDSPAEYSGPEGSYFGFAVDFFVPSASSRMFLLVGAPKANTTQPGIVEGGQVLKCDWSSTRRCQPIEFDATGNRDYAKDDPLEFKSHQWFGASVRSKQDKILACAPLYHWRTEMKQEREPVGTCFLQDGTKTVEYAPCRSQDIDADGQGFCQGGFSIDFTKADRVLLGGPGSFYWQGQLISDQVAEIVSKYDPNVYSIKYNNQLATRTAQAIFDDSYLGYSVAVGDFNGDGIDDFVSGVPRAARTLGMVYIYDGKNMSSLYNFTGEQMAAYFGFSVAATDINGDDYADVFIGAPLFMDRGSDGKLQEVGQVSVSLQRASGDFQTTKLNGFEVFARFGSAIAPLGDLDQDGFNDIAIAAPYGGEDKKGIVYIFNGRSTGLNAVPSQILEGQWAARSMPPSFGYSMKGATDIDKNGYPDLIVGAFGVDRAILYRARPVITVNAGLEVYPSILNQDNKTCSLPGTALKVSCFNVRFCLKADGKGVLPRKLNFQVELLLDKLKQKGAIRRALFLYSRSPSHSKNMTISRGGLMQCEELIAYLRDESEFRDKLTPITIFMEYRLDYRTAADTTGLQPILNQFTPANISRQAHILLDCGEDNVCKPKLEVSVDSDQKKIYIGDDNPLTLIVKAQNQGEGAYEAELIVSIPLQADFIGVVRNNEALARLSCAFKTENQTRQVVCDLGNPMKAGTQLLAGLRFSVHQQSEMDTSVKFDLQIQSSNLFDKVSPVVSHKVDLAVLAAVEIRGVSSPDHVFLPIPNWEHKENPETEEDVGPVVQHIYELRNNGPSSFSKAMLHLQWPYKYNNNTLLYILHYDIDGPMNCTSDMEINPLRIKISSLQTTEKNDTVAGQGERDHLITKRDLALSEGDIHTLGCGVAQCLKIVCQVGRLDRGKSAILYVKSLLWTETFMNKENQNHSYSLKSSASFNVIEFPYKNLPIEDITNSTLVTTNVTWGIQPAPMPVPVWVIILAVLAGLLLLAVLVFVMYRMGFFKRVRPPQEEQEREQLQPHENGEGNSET
Sequence of UniProt P06756 (P05106 27-788, chain 2 of 2, further chain): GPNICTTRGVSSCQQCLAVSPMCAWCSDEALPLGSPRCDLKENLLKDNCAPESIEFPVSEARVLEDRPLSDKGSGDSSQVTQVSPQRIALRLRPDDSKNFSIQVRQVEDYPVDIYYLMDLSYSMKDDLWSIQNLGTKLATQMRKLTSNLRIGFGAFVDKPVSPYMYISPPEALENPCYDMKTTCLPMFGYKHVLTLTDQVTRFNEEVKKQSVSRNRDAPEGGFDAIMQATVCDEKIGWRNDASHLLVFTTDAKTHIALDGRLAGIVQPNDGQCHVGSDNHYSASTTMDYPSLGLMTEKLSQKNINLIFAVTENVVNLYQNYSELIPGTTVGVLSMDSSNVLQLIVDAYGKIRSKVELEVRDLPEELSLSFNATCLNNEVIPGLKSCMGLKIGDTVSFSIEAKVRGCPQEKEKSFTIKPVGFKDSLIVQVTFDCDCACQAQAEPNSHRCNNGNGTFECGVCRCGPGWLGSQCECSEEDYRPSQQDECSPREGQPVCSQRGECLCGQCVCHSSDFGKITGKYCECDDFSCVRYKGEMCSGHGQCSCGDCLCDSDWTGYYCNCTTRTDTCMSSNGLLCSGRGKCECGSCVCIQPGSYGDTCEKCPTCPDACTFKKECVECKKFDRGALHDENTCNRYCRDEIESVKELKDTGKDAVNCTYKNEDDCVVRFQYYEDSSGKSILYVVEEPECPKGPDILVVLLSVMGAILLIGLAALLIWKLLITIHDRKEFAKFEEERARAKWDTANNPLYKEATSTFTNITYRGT

Kd: 1000 nM
Substance: FGF1 (from UniProt P05230)
